According to patent US8492099B2, “Method of measuring enzymatic activity of adsorbed allergenic enzyme” (Alk-Abello A/S, priority 2005, dated 2013):

What was measured:
[1] = Papain activity over time in the absence of aluminium hydroxide; format: physicochemical; details: 10 μg/mL papain in 50 mM Bis-Tris, 4° C.
Experimental: Papain was mixed with 50 mM Bis-Tris buffer to a final concentration of 10 μg/mL in a total volume of 500 μL. The mixture was incubated at 4° C. and samples were taken out at 0, 30 and 60 min. The samples were diluted and incubated for 10 min in buffer containing DTT and subsequently activity was measured after addition of substrate. […] Additional loss occurs until the initiation of the enzymatic assay.

[2] = Adsorption of papain to aluminium hydroxide: active enzyme by active site titration with E-64; format: biochemical
Experimental: (§1) After adsorption 500 μL was taken out for further analysis and the rest of the mixture was centrifuged for 10 min at 400 rpm. The rest of the samples analysed follow the flow scheme in FIG. 12. Furthermore a control (Con) containing papain in Bis-Tris buffer in the absence of aluminium hydroxide was prepared.
The active site titration was used to estimate the amount of active enzyme in the different samples. This is in contrast to the protein concentration estimated from A280 which represents the total protein content of the sample.

[3] = Adsorption of papain to aluminium hydroxide: protein concentration by A280; format: physicochemical; details: 100 μg/mL papain, 1.14 mg/mL aluminium hydroxide, 1 h at 4° C.; ANOVA p-value=0.615
Text: The aromatic amino acids tryptophan, tyrosine and phenylalanine absorb ultraviolet light. However only tryptophan and tyrosine absorb at 280 nm and tryptophan absorbs 5 times more light than tyrosine. This is due to the […] transition in the indole ring of tryptophan where phenylalanine and tyrosine contains a phenyl group. The absorbance of a protein is linearly correlated with the amount of tryptophan and tyrosine in the protein, the length of the light path and the concentration of protein. This relationship is named Lambert-Beer's law and is given by: A=ε·l·c where A is the absorbance, ε is the molar absorption coefficient for the protein (determined by the amount of tryptophan and tyrosine in the protein) l is the length of the light path and c is the protein concentration. Thus from an absorbance measurement the concentration of protein can be estimated if the molar absorptivity coefficient is known. • Apparatuses • Lambda 800 UV/VIS Spectrometer, PerkinElmer™ • 100-QS, quartz cuvette, path length 1 cm, Hellma® • Materials and Reagents • 50 mM Bis-Tris pH 6.5, Sigma • 50 mM Tris pH 7.0, Sigma • 50 mM phosphate buffer pH 7.0, Merck • 2% Helmanex solution, Hellma Experimental Procedure
The spectrophotometer was turned on 30 min prior to use for a warm up period. […] After cleaning the cuvette 20 μL of sample was transferred to the cuvette and the absorbance was measured. […]

[4] = Papain enzyme activity fluorescence assay (activity measurements and Michaelis-Menten kinetic), papain/aluminium hydroxide adsorption experiment; format: biochemical
Experimental: After measuring the enzymatic activity the maximal slope of the progress curve was estimated using the software SoftMax® PRO Life Sciences Edition, Molecular Devices, 2001. After estimating the initial velocity of the experiments they were transferred to Prism and analyzed.
as §1
Two types of enzymatic assays were performed: (i) activity measurements using a fixed substrate concentration to evaluate enzyme activity and (ii) Michaelis-Menten kinetic to estimate the kinetic parameters Vmax and KM.
All activity assays were conducted with BisTris buffer, pH 6.5, 5 mM DTT/, mM EDTA and Z-FR-AMC as substrate.

[5] = Adsorbed: papain adsorbed to aluminium hydroxide (mix 2)
[6] = Control: papain in the absence of aluminium hydroxide
[7] = activity measurements, 30 μM Z-FR-AMC

B1: papain: cysteine protease Car p 1 from the plant Carica papaya, purified, Sigma; chosen as negative control (protein, UniProt P00784 134-345, looked up)
Papain: IPEYVDWRQKGAVTPVKNQGSCGSCWAFSAVVTIEGIIKIRTGNLNEYSEQELLDCDRRSYGCNGGYPWSALQLVAQYGIHYRNTYPYEGVQRYCRSREKGPYAAKTDGVRQVQPYNEGALLYSIANQPVSVVLEAAGKDFQLYRGGIFVGPCGNKVDHAVAAVGYGPNYILIKNSWGTGWGENGYIRIKRGTGNSYGVCGLYTSSFYPVKN
[1]
  Activity at 60 min lower than at 0 and 30 min (loss of activity): 7%
[2]
  Active papain adsorbed to aluminium hydroxide (Mix3): approximately 7%
  Active papain in solution (Sup1+Sup2): 91%
[3]
  Adsorption of papain to aluminium hydroxide (A280, Con vs Sup1): does not adsorb significantly
[4]
  Vmax in Mix3 relative to Mix1: 7%
  Vmax in solution (Sup1+Sup2) relative to Mix1: 97%
[4]; [5]
  Km: 21 µM
  Vmax: 44.1 ng/mL · s
  kcat (Vmax/protein concentration, A280): 14.58 s⁻¹
  kcat (Vmax/protein concentration, active site titration): 12.18 s⁻¹
[4]; [6]
  Vmax: 373.9 ng/mL · s
  kcat (Vmax/protein concentration, A280): 5.13 s⁻¹
  kcat (Vmax/protein concentration, active site titration): 11.41 s⁻¹
[4]; Control: papain in the absence of aluminium hydroxide, Z-FR-AMC, pH 6.5
  Km: 22 µM
[4]; [7]
  Activity in Mix1 found in solution (Sup1+Sup2): 96%
  Activity of papain adsorbed to aluminium hydroxide (Mix3): 8%
[4]; one-way ANOVA p-value=0.999
  Difference between KM estimates of samples in presence and absence of aluminium hydroxide: no significant difference
[4]; papain with aluminium hydroxide
  Part of the enzyme not bound to the adjuvant: 93%
[4]; papain without vs with aluminium hydroxide
  Activity of the control lower than the activity of Mix1: 17%
